According to article PMC2747663:

Assays:
[1] = biological target: soluble extracellular domains (ECD) of ERBB3, V5 and His6 epitope-tagged (human) (UniProt P21860); assay: cross-linking
[2] = biological target: full-length ERBB3 (pIND/TRE-based), recombinant and overexpressed in CHO cells (human) (UniProt P21860); assay: cross-linking

“soluble extracellular domains (ECD) of ERBB3, V5 and His6 epitope-tagged (from UniProt P21860 20-643) (domain or fragment)” showed a stoichiometry N [1] of 2.
“full-length ERBB3 (pIND/TRE-based), recombinant and overexpressed in CHO cells (from UniProt P21860 20-1342) (receptor)” was tested, and the stoichiometry N [2] was 2.
